Measured values taken from patent US20230242601A1, “PEPTIDE USED TO PREVENT OR TREAT SYNUCLEINOPATHY” (TOHOKU UNIVERSITY, priority 2020, published 2023).
One block for each substance: values may come before it. Where no end group is shown, it is not given here.

Legend:
FABP3 = FABP3 (Homo sapiens, UniProt P05413); assay: QCM (quartz crystal microbalance) binding analysis of immobilized FABP3 with α-synuclein or its peptides; conditions: for binding affinity for FABP3 relative to the natural sequence (SynP130-140) / binding affinity for FABP3 compared with the natural sequence (SynP130-140), in words: immobilized FABP3; for binding to FABP3: His-tagged FABP3 immobilized, 2.5-20 nM analyte, 50 mM Tris-HCl pH 7.4, 25° C.
Experimental: The substrate was washed with purified water, then 500 μL of a Ni solution (20 mM HEPES-NaOFH buffer, pH 7.5, 150 mM NaCl, 50 mM EDTA, 10 mM NiSO4) was added, and the substrate was allowed to stand at room temperature for 10 minutes. The substrate was washed with purified water, then 100 nM of FABP3 fused with a His-tag at the N-terminus diluted with a 50 mM Tris-HCl pH 7.4 was added to a quartz sensor and treated for one minute to be immobilized. […] The measurement was performed in a 500 μL liquid under conditions of 25° C. and 1000 rpm for three minutes. After the measurement, Kd, kon, and koff were each calculated with AQUA 2.0 software (Initium).
FABP3 and various mutants of SynP130-140 were interacted in the same manner as in Example 1. The measurement was performed by adding each peptide at any concentration to the immobilized FABP3.
The detailed experimental method is as described in the method of Example 1.

[1] = target: α-synuclein and FABP3 (Syn-FABP3 complex) (Homo sapiens, UniProt P05413); assay: Thioflavin T fluorescence / TEM observation of α-synuclein amyloid fibril formation with FABP3 and peptide; type: biochemical
Experimental: An ARVO X4 (Perkin Elmer) was used for shaking and measuring fluorescence values over time in the fibril formation process of Syn. For the measurement, the samples were added to a 96-well plate (8×12-well plate; Greiner, Kremsmuenster, Austria) to give 150 μL/well, and the fluorescence (Ex of 440 nm and Em of 486 nm) was measured every 15 minutes while the well plate was continuously shaken at 37° C. […] Samples after 1800 minutes obtained after the measurement were measured with a transmission electron microscope (TEM) (JEOL JEM-1400 Plus). To a collodion membrane (400 mesh; Nisshin EM, Tokyo, Japan), 10 μL of the sample was added and allowed to stand at room temperature for two minutes, then washed with 5 μL of purified water, stained with 5 μL of a 10% EM stain solution for one minute, and then washed with 5 μL of purified water. This was air-dried overnight and then measured.
The thio-T measurement and the measurement with a TEM were performed in the same manner as in Example 3.
The thio-T measurement and the measurement with a TEM were performed in the same manner as in Example 3. The Thio-T measurement was performed for samples to each of which SynP130-140 was added at the beginning (0 hour), after 3 hours, 8 hours, or 24 hours.

[2] = system: cultured dopaminergic nerve cells; assay: Antagonistic effect of C-terminal peptide on uptake of ATTO-550-labeled α-synuclein monomer into cultured dopaminergic nerves; type: cell-based, mouse; conditions: 1 μM peptide with 1 μM ATTO-550-labeled α-synuclein monomer, 48 hours; p<0.0001 vs control
Experimental: Cultured dopaminergic nerves were prepared according to the method (Kawahata et al. 2019) already described. Specifically, the uterus was aseptically removed from a C57BL6N mouse on day 15.5 of pregnancy by abdominal midline incision under deep isoflurane anesthesia, and the fetal mesencephalon was removed in ice-cold Hank's balanced salt solution (HBSS) under a stereomicroscope. The tissue was then dispersed by treatment with a nerve cell suspension (Sumitomo Bakelite) at 37° C. for 30 minutes, the dispersion was centrifuged at 1000 rpm for 5 minutes, and then the supernatant was discarded. The cell pellet was dispersed, then a removal solution (Sumitomo Bakelite) was added, and the mixture was centrifuged at 900 rpm for 5 minutes. The supernatant was then removed, the pellet was suspended in Eagle's minimal essential medium (EMEM) and seeded on a poly-L-lysine-coated chamber plate (Iwaki). […] Values are mean±SEM (n>20), and one-way ANOVA with Tukey test was performed for all the groups. The conceptual diagram of the synthesized α-synuclein is illustrated in C.

Chain of α-synuclein and FABP3 (Syn-FABP3 complex) (P05413 whole entry, species assumed, one chain of several): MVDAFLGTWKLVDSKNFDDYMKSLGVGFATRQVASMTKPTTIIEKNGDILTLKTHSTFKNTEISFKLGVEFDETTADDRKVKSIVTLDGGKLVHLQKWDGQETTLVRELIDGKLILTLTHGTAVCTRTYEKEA
Chain of FABP3 (P05413 2-133 limits assumed): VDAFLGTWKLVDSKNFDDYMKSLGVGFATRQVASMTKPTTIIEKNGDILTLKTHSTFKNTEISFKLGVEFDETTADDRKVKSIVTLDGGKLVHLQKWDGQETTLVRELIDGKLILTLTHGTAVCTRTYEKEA

Kd (FABP3; QCM, binding to FABP3): 0.1 nM
binding affinity for FABP3 relative to the natural sequence (SynP130-140) (FABP3; QCM): two-fold stronger
Substance: EEGFQDYEPEA [Y133F]
amyloid aggregate formation of α-synuclein, concentration dependence ([1]; peptide at 0.1, 0.5 or 1 equivalent to 69 μM α-synuclein and 69 μM FABP3): preferentially binds to FABP3 in a dose-dependent manner

binding affinity for FABP3 compared with the natural sequence (SynP130-140), in words (FABP3; QCM): about the same affinity
Substance: Y136W: peptide in which the 136th tyrosine in SynP130-140 was replaced by tryptophan (EEGYQDWEPEA)

binding to FABP3 (FABP3; QCM): hardly bound to FABP3
Substance: SynP2-10: peptide of the N-terminal region of human α-synuclein, second to tenth amino acids (DVFMKGLSKA; partial peptide of alpha-synuclein) [reference compound]

binding to FABP3 (FABP3; QCM): hardly bound to FABP3
Substance: SynP73-96: peptide of the NAC region of human α-synuclein, 73th to 96th amino acids [reference compound]

The remaining lines, values behind:

Substance: Y133F/Y136W: SynP130-140 mutant with tyrosine 133 changed to phenylalanine and tyrosine 136 changed to tryptophan (EEGFQDWEPEA)
binding affinity for FABP3 compared with the natural sequence (SynP130-140), in words (FABP3; QCM): failed to further strengthen the binding affinity

Substance: EGYQDYEPEA [10aa]
intracellular uptake of fluorescently labeled α-synuclein (ATTO fluorescence intensity) [2]: inhibited the intracellular uptake

Substance: Y133W/Y136W: peptide in which the 133rd and 136th tyrosines in SynP130-140 were replaced by tryptophans (EEGWQDWEPEA)
binding affinity for FABP3 compared with the natural sequence (SynP130-140), in words (FABP3; QCM): did not change the binding affinity

Substance: FABP3: fatty acid-binding protein 3
aggregation of synuclein on adding FABP3 alone ([1]; equimolar FABP3 added to α-synuclein, no peptide, Thio-T): completely suppressed the aggregation of synuclein

Substance: Y136F: SynP130-140 mutant in which tyrosine at position 136 was changed to phenylalanine (EEGYQDFEPEA)
binding affinity for FABP3 compared with the natural sequence (SynP130-140), in words (FABP3; QCM): about the same affinity

Substance: SynP130-140: peptide of the C-terminal region of human α-synuclein composed of the 130th to 140th amino acids (EEGYQDYEPEA; partial peptide of alpha-synuclein)
affinity for FABP3 compared with Syn (FABP3): stronger affinity for FABP3
binding to FABP3 (FABP3; QCM): bound to FABP3 in a dose dependent manner
amyloid fibril aggregate formation of α-synuclein ([1]; FABP3, α-synuclein and peptide added simultaneously, 1:1:1 molar ratio (69 μM each), Thio-T, 37° C.): forms amyloid tibril aggregates
release of Syn from the Syn-FABP3 complex and amyloid fibril formation ([1]; equimolar peptide added to the preformed 1:1 complex at 0, 3, 8 or 24 hours): releases Syn from FABP3

Substance: Y133F/Y136F: SynP130-140 mutant in which tyrosine at position 133 and position 136 were both changed to phenylalanine (EEGFQDFEPEA)
binding affinity for FABP3 relative to the natural sequence (SynP130-140) (FABP3; QCM): 2 fold
